Consider four molecules from publication PMC4934914, “Crystal Structure of Bacillus subtilis Cysteine Desulfurase SufS and Its Dynamic Interaction with Frataxin and Scaffold Protein SufU” (PLoS ONE, 2016).

B1: Bacillus subtilis cysteine desulfurase SufS (enzyme)
chain: MNITDIREQFPILHQQVNGHDLVYLDSAATSQKPRAVIETLDKYYNQYNSNVHRGVHTLGTRATDGYEGAREKVRKFINAKSMAEIIFTKGTTTSLNMVALSYARANLKPGDEVVITYMEHHANIIPWQQAVKATGATLKYIPLQEDGTISLEDVRETVTSNTKIVAVSHVSNVLGTVNPIKEMAKIAHDNGAVIVVDGAQSTPHMKIDVQDLDCDFFALSSHKMCGPTGVGVLYGKKALLENMEPAEFGGEMIDFVGLYESTWKELPWKFEAGTPIIAGAIGLGAAIDFLEEIGLDEISRHEHKLAAYALERFRQLDGVTVYGPEERAGLVTFNLDDVHPHDVATVLDAEGIAVRAGHHCAQPLMKWLDVTATARASFYLYNTEEEIDKLVEALQKTKEYFTNVF
modifications: pyridoxal-5'-phosphate bound to Lys224 as an aldimine; Cys361-persulfide (in the crystal)
notes: cysteine desulfurase SufS of Bacillus subtilis; The structure 'could be built to completeness'; also called BsSufS
B2: Bacillus subtilis scaffold protein SufU (natural protein)
chain: MSFNANLDTLYRQVIMDHYKNPRNKGVLNDSIVVDMNNPTCGDRIRLTMKLDGDIVEDAKFEGEGCSISMASASMMTQAIKGKDIETALSMSKIFSDMMQGKEYDDSIDLGDIEALQGVSKFPARIKCATLSWKALEKGVAKEEGGN
notes: Fe-S cluster scaffold protein SufU of Bacillus subtilis; also called BsSufU

Data set [1] concerns the molecule itself. In words: crystal structure; BsSufS crystallised at 20 mg/ml in 0.1 M HEPES pH 7.5, 50% (v/v) PEG 400, 20°C; one molecule in the asymmetric unit, homodimer across the crystallographic symmetry axis; 1.7 Å.
For data set [2], the target named is B1. Nature of the data set: HDX-MS; 60 μM of each component in 25 mM Tris-Cl pH 7.5, 100 mM NaCl; exchange in D2O buffer at 25°C for 15, 30, 60 or 600 s; online pepsin digestion. The conditions noted are these: both partners purified.
Data set [3] concerns the target T1, BsSufS/BsSufU complex (Bacillus subtilis, UniProt O32164 1-406; O32163 1-147).
T1 construct: cysteine desulfurase SufS of Bacillus subtilis, as the chain of m1; scaffold protein SufU of Bacillus subtilis, as the chain of m2; SufS is described as a homodimer; also called BsSufU/BsSufS; SufS/SufU complex; copies: 2 +
In words: MST; labelled BsFra (0.25 μM) mixed 1:1 with a dilution series of the partner (560 μM to 0.030 μM); 25 mM Tris-Cl, 100 mM NaCl, 10 mM 2-mercaptoethanol, pH 7.5; 25°C; Hill model; average of three measurements. Particulars: both partners purified.

The target in data set [4] is B2. The description is as above. The conditions noted are these: both partners purified.
Data set [5] deals with B1. The description is as above. The conditions noted are these: both partners purified.
Data set [6] has as its target B2. In words: HDX-MS; 60 μM of each component in 25 mM Tris-Cl pH 7.5, 100 mM NaCl; exchange in D2O buffer at 25°C for 15, 30, 60 or 600 s; online pepsin digestion. Particulars: both partners purified.

In general, stoichiometry N refers to the number of molecules, sites or subunits per partner or assembly. As a reminder, the Kd is the free concentration of one partner at which half of the binding sites on the other are occupied at equilibrium, for simple one-to-one binding.

As to B1, the “stoichiometry N” value in data set [1] worked out at 2.

For B2, the binding result in data set [2] is on record as “binds”.

B3: fluorophore-labelled BsFra (natural protein, Bacillus subtilis)
chain: MDVFSEYLAGIADPFHRERTEEVLTWIKNKYPNLHTEIKWNQPMFTDHGTFIIGFSVSKKHLAVAPEKVTIAHVEDDIVKAGYDYTEQLIRIPWNGPVDYTLLEKMIEFNILDKADCSTFWRK
modifications: labelled with the Monolith NT.115 Protein Labeling Kit RED MALEIMID (cysteine-reactive)
notes: frataxin homolog Fra (formerly YdhG) of Bacillus subtilis, as the chain of m3; Same protein as m3, with a red fluorophore on cysteine for MST; also called labeled BsFra; fluorophore-tagged frataxin
As for B3, the dissociation constant Kd is 32.5 ± 3.6 µM in data set [3], 57.4 ± 13.8 µM in data set [4] and 50.6 ± 17.4 µM in data set [5].

B4: Bacillus subtilis frataxin homolog Fra (natural protein)
chain: MDVFSEYLAGIADPFHRERTEEVLTWIKNKYPNLHTEIKWNQPMFTDHGTFIIGFSVSKKHLAVAPEKVTIAHVEDDIVKAGYDYTEQLIRIPWNGPVDYTLLEKMIEFNILDKADCSTFWRK
notes: frataxin homolog Fra (formerly YdhG) of Bacillus subtilis; Unlabelled form, used in H/DX and activity assays; also called BsFra; YdhG (former name)
As for B4, the binding result in data set [6] and in data set [2] was “binds” each time.
